{
  "source": "patent US20110065649A1",
  "about": "(CENTRE NATIONAL DE LA RECHERCHE SCIENTIFIQUE CNRS, published 2011)",
  "molecular_target": "surface nucleolin on human cells (human, UniProt P19338 2-710)",
  "sequence (P19338 2-710)": "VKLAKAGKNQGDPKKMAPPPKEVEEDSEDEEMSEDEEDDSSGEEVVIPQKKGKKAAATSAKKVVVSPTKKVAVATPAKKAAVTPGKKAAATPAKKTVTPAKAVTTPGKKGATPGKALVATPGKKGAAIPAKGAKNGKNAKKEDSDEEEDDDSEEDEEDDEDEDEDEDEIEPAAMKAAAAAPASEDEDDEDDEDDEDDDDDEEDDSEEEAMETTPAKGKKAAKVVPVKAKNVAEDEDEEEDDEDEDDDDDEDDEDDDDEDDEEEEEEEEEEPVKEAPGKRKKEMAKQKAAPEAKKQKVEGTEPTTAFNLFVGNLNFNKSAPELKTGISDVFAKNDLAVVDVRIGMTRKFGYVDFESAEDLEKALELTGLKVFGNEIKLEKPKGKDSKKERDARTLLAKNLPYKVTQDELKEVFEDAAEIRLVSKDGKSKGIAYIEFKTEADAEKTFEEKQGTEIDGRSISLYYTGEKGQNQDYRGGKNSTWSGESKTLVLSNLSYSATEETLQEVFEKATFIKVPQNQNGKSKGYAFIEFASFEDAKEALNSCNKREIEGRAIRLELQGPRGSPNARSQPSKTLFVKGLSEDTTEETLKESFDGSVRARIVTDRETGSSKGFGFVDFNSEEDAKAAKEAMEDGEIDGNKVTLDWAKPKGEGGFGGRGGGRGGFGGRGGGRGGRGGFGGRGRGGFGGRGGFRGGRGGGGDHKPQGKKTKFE",
  "assay": "cell-based or functional assay",
  "note": "Square brackets hold non-standard residues; d marks the D form. Ends that are not written are not given here. KΨPR = pseudopeptide unit Lys-Ψ(CH2-N)-Pro-Arg; Aib = CC(C)(N)C(=O)O",
  "data": [
    {"binder": "hexavalent compound Nucant 6 (also: chain 2 is the KΨPR unit, one copy bound via its C-terminus as amide on the ε-amine of each of the 6 Lys of chain 1, reduced bond Ψ(CH2-N) between K and P of chain 2) Ac-K(KΨPR)[Aib]GK(KΨPR)[Aib]GK(KΨPR)[Aib]GK(KΨPR)[Aib]GK(KΨPR)[Aib]GK(KΨPR)[Aib]G-NH2 peptide: Lys-Pro-Arg", "values": [
      {"measurement": "ID50 (Inhibitory Dose at 50%) of surface nucleolin activity in HeLa P4 cells", "result": "< 0.1", "unit": "µM"}
    ]}
  ]
}
